Assay results from the supplement of paper PMC12636428.

System: Saccharomyces cerevisiae
Experiment: transcriptional activation domain activity (GFP:mCherry ratio, weighted mean of sorted bins, harmonized to initial dataset scale) (arbitrary fluorescence ratio units); higher = stronger transcriptional activation
Conditions: beta-estradiol 1 µM; induction time 4 h
Description: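 53-aa protein tiles (fungal proteins plus yeast TF control tiles) fused C-terminally to a DBD-estrogen-binding domain-mCherry synthetic TF, integrated in S. cerevisiae (URA3 locus) with a GFP reporter. Cells were induced with 1 uM beta-estradiol for 4 h at 30 C, FACS-sorted into 8 bins by GFP:mCherry ratio and barcodes sequenced. Activity is the read-weighted mean bin fluorescence (GFP:mCherry), averaged over barcodes (median 12); tiles under 50 reads were discarded. New active-learning values were harmonized by linear fit onto the scale of the initial (Hummel et al.) dataset. The assay saturates at low and high signal.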

## MSENTAIENVTVTLEKTKLDAPVTNEAEVAHAASAAEGRRLYIGNLAYSTTEE
  transcriptional activation domain activity: 16900

## MSPPEQSGGAPKHRACDECRARKLACSKEPDGCARCKRESQVCHYSAQKPMGR
  transcriptional activation domain activity: < 6570

## HLIVSLSLSIFLFYLFWCLSIHVCVCLVSIYYILLLASLCFFLFFFNYLPILL
  transcriptional activation domain activity: 50300

## KDEEEREGEKRKEGKEESDTAVVKHRRRYRSRSKDRKRDGSRERRHRERSREG
  transcriptional activation domain activity: 30600

## ESASTNTSSALNCQSYTNNQDIMDILFQVTSGSVWDEFFVRSGNGNEGESSYD
  transcriptional activation domain activity: 86700

## KIHIANMAQVAVFLLHKILYGIIPLFEISTCAYFPLLISLWHLNYLLFYTVMF
  transcriptional activation domain activity: 63200

## EKLVMNILEAVRLFHSIFDGLIAKALDEFAHLSRQARTMLSFFVIHIHLGVLH
  transcriptional activation domain activity: 71300

## GLKRLAMLLRRMLSEKDLIFVFKGLQFLKYWTLSAEEIHTHARYWRRAWKILS
  transcriptional activation domain activity: 52400

## MDPQIDSQTPKRPSRGACRECASSKVKCLPQSSTNDGKCERCQLRGKACERRS
  transcriptional activation domain activity: 22700

## MSPSSAVFFFFFFCIALFDSVWLVSFFMVLFFLFDSSLYSLLFFSCLFFFIHS
  transcriptional activation domain activity: 50000

## LLFLPYSCASFFFSLFSLFYFFLFYFFLLFSHIRIFISLSIHFSSSCFSTFLL
  transcriptional activation domain activity: 58300

## PGKCINEFIEVVCKLADSGRLSLRMLVDIVVLFWNLTRVHCEQFSHKFLRLLH
  transcriptional activation domain activity: 15900

## NRPGQKSIQVLNQYIGIDIGKCYLCGRLCVNLSYVCWSSPQLLYNCRMVMITR
  transcriptional activation domain activity: 41000

## GTCGKLGLLCRSMALYSPEVTVVTVSGGGGSSRWVEYLELALRTTGRVAVLLT
  transcriptional activation domain activity: 64500

## FFLALSFRDALAATSMMNLNNCMADPLLGKWVCQLLPSLTSILMFTVELVLFF
  transcriptional activation domain activity: 63800

## GDGKEEGAQKKKKKKAKKAHGEEGEQEGGDEKAKKKKKKKKKKALGGRARARA
  transcriptional activation domain activity: 26600

## ATIAPPQLELVTDPQLSMDSFLEMIRVFTVPGKCFFDALAADSTDASCTEESL
  transcriptional activation domain activity: 95400

## PDIKKRPRKKSRRASAEGSEIGTESGGSDDGRQESAQRRKVERKERAGSSKEV
  transcriptional activation domain activity: 47100

## MFCLRSWLPLLFIPTNAPPIFVFLFFVCTFFLSRPCVYCSFLLAILFLTSCYW
  transcriptional activation domain activity: 65100

## SSSSSSREDGEASDASSSSRDSRRRRRRSTSRDKRPAAESKAATEPAAAKPRN
  transcriptional activation domain activity: 30000

## APFFLPPFHFFFPFFPFPFFLGSFPFLFSFPFPFSFPFFLFHFPSFFPFLPSF
  transcriptional activation domain activity: 65400

## MLLLLYLILYLMMMLFAVCALISIYLCIYTLPLLSFPFFLALFYFILFLYVYL
  transcriptional activation domain activity: 45200

## CGQILLTICLLPLLFFFFFFFFWSKGVSPFLSHLSSVLLIMLGRIMQIVVGLW
  transcriptional activation domain activity: 38300

## NFGLMSGLYLYVCILGDSWCPSIDLIFNWMSYAYLWNVYIFLLEIIPVTLMVL
  transcriptional activation domain activity: 72100

## QADYMCQYKGGLIGKHFKTLSQVMAFAVHGLVPPDVLEAWLILGRLTVLLWHT
  transcriptional activation domain activity: 49400

## DREHRSKHRRHSSDSRSRSHSHRERRKDKSKHREKEKDKDRKKRKKEKERRRD
  transcriptional activation domain activity: 36500

## AYWVVLGIWWFIFQQHCPGPPLPMGKNYLTIGWKQIWLAVKQYKHMPYTFIYL
  transcriptional activation domain activity: 53300

## FHLPCLSLRWWRWCWGHYRLILVVLCLVLLPCLVFLDTIYVYKAFFQIKLENT
  transcriptional activation domain activity: 34500

## MATRHVSAANNANKPRACLTCRTSKHKCDGNDRSTAPCSRCLRTGKSCIWPAK
  transcriptional activation domain activity: 33800

## GGGGGGGGSYGAFGGGGKTCYTCGGVGHLSRDCVQGSKCYNCSGIVRDVILVE
  transcriptional activation domain activity: 67800
